Source: patent EP4714975A1 (Nanjing Leads Biolabs Co., Ltd., dated 2026)

What was measured:
[1] = target: T1, human LILRB4 endogenously expressed on tumor cells (MV-4-11, HL-60) (human, UniProt Q8NHJ6 22-448); test: flow cytometry on MV-4-11 cells
T1 construct: whole, on cells; also called tumor cells (MV-411) expressing human LILRB4; HL-60 cells that endogenously express human LILRB4

[2] = target: T2, human LILRB4 expressed on CHO-K1 cells (CHO-K1-huLILRB4) (human, UniProt Q8NHJ6 22-280); test: flow cytometry on CHO-K1-huLILRB4 cells
T2 construct: also called engineered cells expressing human LILRB4

[3] = target: T3, cynomolgus monkey LILRB4 protein (ACRO Biosystems, Cat. No.: CDK-C5227) (cynomolgus monkey); test: BLI (ForteBio Octet RED96e), antibody captured on AHC sensor, antigen in solution, 1:1 model
T3 construct: Bought reagent

[4] = target: human CD3 protein (Sino Biological, Cat. No.: CT038-H2508H) (human, UniProt P07766 23-126); test: as above
human CD3 protein (Sino Biological, Cat. No.: CT038-H2508H), sequence (P07766 23-126): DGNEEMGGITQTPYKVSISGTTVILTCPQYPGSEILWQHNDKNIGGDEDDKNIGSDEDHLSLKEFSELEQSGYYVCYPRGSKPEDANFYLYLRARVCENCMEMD

[5] = target: T4, cynomolgus monkey CD3 protein (ACRO Biosystems, Cat. No.: CDD-C52W4) (cynomolgus monkey, UniProt Q95LI5 22-117); test: as above
T4 sequence (looked up): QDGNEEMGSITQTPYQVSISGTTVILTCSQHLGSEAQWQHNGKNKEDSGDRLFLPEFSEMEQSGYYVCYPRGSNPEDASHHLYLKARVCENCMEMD

| Binder | binding result [1] | binding result [2] | Kd [3] [nM] | koff [3] [s⁻¹] | kon [3] [M⁻¹ s⁻¹] | Kd [4] [nM] | koff [4] [s⁻¹] | kon [4] [M⁻¹ s⁻¹] | Kd [5] [nM] | koff [5] [s⁻¹] | kon [5] [M⁻¹ s⁻¹] |
| --- | --- | --- | --- | --- | --- | --- | --- | --- | --- | --- | --- |
| humanized anti-LILRB4 antibody huB1G5-1 (antibody, V domains shown, Humanized VHH-Fc heavy-chain antibody without light chain; also called Humanized anti-LILRB4 VHH huB1G5-1-Fc) VH: EVQLVESGGGLVQPGGSLRLSCAASESIFSSNVMGWYRQAPGKQRELVAAVGINGLTKIGDSVKGRFTISRDNAKNSVYLQMNSLRAEDTAVYYCAAGAYVRFLQNSPDYWGQGTQVTVSS | binds | – | – | – | – | – | – | – | – | – | – |
| anti-LILRB4 chimeric antibody B1G5 (antibody, human IgG1, V domains shown, also called Camelid-derived anti-LILRB4 VHH B1G5-Fc) VH: EVQLVESGGGLVQAGGSLRLSCAASESIFSSNVMGWYRQSPGHQRELVAAVGINGLTKIGDSVKGRFTISRDNAKNTVYLQMNSLKVEDTAVYYCAAGAYVRFLQNSPDYWGQGTQVTVSS | – | binds | – | – | – | – | – | – | – | – | – |
| humanized anti-LILRB4 antibody huB1G5-3 (antibody, V domains shown, Humanized VHH-Fc heavy-chain antibody without light chain; also called Humanized anti-LILRB4 VHH huB1G5-3-Fc) VH: EVQLVESGGGLVQPGGSLRLSCAASESIFSSNVMGWYRQAPGKQRELVAAVGIQGLTKIGDSVKGRFTISRDNAKNSVYLQMNSLRAEDTAVYYCAAGAYVRFLQQSPDYWGQGTQVTVSS | binds | – | – | – | – | – | – | – | – | – | – |
| anti-LILRB4 chimeric antibody 2A3 (antibody, human IgG1, V domains shown, also called Camelid-derived anti-LILRB4 VHH 2A3-Fc) VH: EVQVVESGGGSVQTGGSLTLSCAASGRTFRSNGMGWFRQAPGKEREFVAAIRWSGRRTTYTDSVKGRFTISSDSAKNTVYLQMSSLKPEDTAVYYCAVDLLPPYGALDKYDYWGQGTQVTVSS | – | binds | – | – | – | – | – | – | – | – | – |
| h193 (a fully human monoclonal antibody against LILRB4) (antibody, human IgG1, kappa, V domains shown, Control antibody; also called antibody h193; control antibody h193) VH: EVQLVESGGGLVQPGGSLRLSCAASGFSLSSSYWISWVRQAPGKGLEWIGSIDSGSVGITYYATWVKGRFTISRDNSKNTLYLQMNSLRAEDTAVYYCARHGDNWALDLWGQGTLVTVSS VL: DLVMTQSPSTLSASVGDRVTITCQASQSINSWLAWYQQKPGKPPKLLIYKASTLASGVSSRFSGSGSGTEFTLTISSLQPDDVATYYCQHGYIRGDLDNVFGGGTKVEIKR | binds | binds | – | – | – | – | – | – | – | – | – |
| anti-LILRB4xCD3 bispecific antibody huB1G5-CD3Fab (bispecific antibody, human IgG1, lambda, L234A L235A, HC1: CD3Fab heavy chain-knob; LC1: CD3Fab light chain; HC2: huB1G5-hole (VHH huB1G5-3 and Fc hole); One anti-LILRB4 VHH, one anti-CD3 Fab, knob-in-hole Fc) heavy 1: not shown light: QAVVTQEPSLTVSPGGTVTLTCRSSTGAVTTSNYANWVQQKPGQAPRGLIGGTNKRAPGVPARFSGSLLGGKAALTLSGAQPEDEAEYFCALWYSNLWVFGGGTKLTVLGQPKAAPSVTLFPPSSEELQANKATLVCLISDFYPGAVTVAWKADSSPVKAGVETTTPSKQSNNKYAASSYLSLTPEQWKSHRSYSCQVTHEGSTVEKTVAPTEC heavy 2: EVQLVESGGGLVQPGGSLRLSCAASESIFSSNVMGWYRQAPGKQRELVAAVGIQGLTKIGDSVKGRFTISRDNAKNSVYLQMNSLRAEDTAVYYCAAGAYVRFLQQSPDYWGQGTQVTVSSEPKSSDKTHTCPPCPAPEAAGGPSVFLFPPKPKDTLMISRTPEVTCVVVAVSHEDPEVKFNWYVDGVEVHNAKTKPREEQYNSTYRVVSVLTVLHQDWLNGKEYKCKVSNKALAAPIEKTISKAKGQPREPQVCTLPPSRDELTKNQVSLSCAVKGFYPSDIAVEWESNGQPENNYKTTPPVLDSDGSFFLVSKLTVDKSRWQQGNVFSCSVMHEALHNHYTQKSLSLSPGK | – | – | 11 | 0.00351 | 320000 | 26.3 | 0.00803 | 305000 | 6.59 | 0.0021 | 318000 |
| anti-LILRB4xCD3 bispecific antibody huB1G5-CD3-2VHH (bispecific antibody, human IgG1, lambda, L234A L235A, HC1: huB1G5-CD3Fab heavy chain-knob (VHH, GGGGS, hu34H1-VH, CH1, Fc knob); LC1: CD3Fab light chain; HC2: huB1G5-hole; Two anti-LILRB4 VHHs, one anti-CD3 Fab) heavy 1: not shown light: QAVVTQEPSLTVSPGGTVTLTCRSSTGAVTTSNYANWVQQKPGQAPRGLIGGTNKRAPGVPARFSGSLLGGKAALTLSGAQPEDEAEYFCALWYSNLWVFGGGTKLTVLGQPKAAPSVTLFPPSSEELQANKATLVCLISDFYPGAVTVAWKADSSPVKAGVETTTPSKQSNNKYAASSYLSLTPEQWKSHRSYSCQVTHEGSTVEKTVAPTEC heavy 2: EVQLVESGGGLVQPGGSLRLSCAASESIFSSNVMGWYRQAPGKQRELVAAVGIQGLTKIGDSVKGRFTISRDNAKNSVYLQMNSLRAEDTAVYYCAAGAYVRFLQQSPDYWGQGTQVTVSSEPKSSDKTHTCPPCPAPEAAGGPSVFLFPPKPKDTLMISRTPEVTCVVVAVSHEDPEVKFNWYVDGVEVHNAKTKPREEQYNSTYRVVSVLTVLHQDWLNGKEYKCKVSNKALAAPIEKTISKAKGQPREPQVCTLPPSRDELTKNQVSLSCAVKGFYPSDIAVEWESNGQPENNYKTTPPVLDSDGSFFLVSKLTVDKSRWQQGNVFSCSVMHEALHNHYTQKSLSLSPGK | – | – | 10.6 | 0.0023 | 218000 | 22.6 | 0.00549 | 242000 | 6.92 | 0.00191 | 276000 |
| anti-LILRB4xCD3 bispecific antibody huB1G5-ScFv-2VHH (bispecific antibody, HC1: huB1G5-Hu34ScFv-knob (VHH, GGGGS, 23L2 ScFv, Fc knob); HC2: huB1G5-hole) heavy 1: not shown heavy 2: EVQLVESGGGLVQPGGSLRLSCAASESIFSSNVMGWYRQAPGKQRELVAAVGIQGLTKIGDSVKGRFTISRDNAKNSVYLQMNSLRAEDTAVYYCAAGAYVRFLQQSPDYWGQGTQVTVSSEPKSSDKTHTCPPCPAPEAAGGPSVFLFPPKPKDTLMISRTPEVTCVVVAVSHEDPEVKFNWYVDGVEVHNAKTKPREEQYNSTYRVVSVLTVLHQDWLNGKEYKCKVSNKALAAPIEKTISKAKGQPREPQVCTLPPSRDELTKNQVSLSCAVKGFYPSDIAVEWESNGQPENNYKTTPPVLDSDGSFFLVSKLTVDKSRWQQGNVFSCSVMHEALHNHYTQKSLSLSPGK | – | – | 15.3 | 0.00365 | 238000 | 35.7 | 0.0112 | 313000 | 28.2 | 0.00801 | 284000 |
| anti-LILRB4 chimeric antibody 1H12 (antibody, human IgG1, V domains shown, also called Camelid-derived anti-LILRB4 VHH 1H12-Fc) VH: EVQVVESGGGLVQAGGSLRLSCAASETIFSSNVMGWYRQAHGKQRELVAATGINGVTKYADSVKGRFTISRDNAKNTVYLQMNSLNVEDTAVYYCAAGVWRNFVMRSPDYWGQGTQVTVSS | – | binds | – | – | – | – | – | – | – | – | – |
| anti-LILRB4 chimeric antibody B1A2 (antibody, human IgG1, V domains shown, also called Camelid-derived anti-LILRB4 VHH B1A2-Fc) VH: QVQLVESGGGLVQPGGSLRLSCAASGFTFSSYTMSWVRQAPGKGLEWISDINNDGGKTYYAFSVEGRFTISRDNAKNTLYLQMNSLKPEDTAVYYCVRDHQYTSRNGDRGQGTQVTVSS | – | binds | – | – | – | – | – | – | – | – | – |
